# Assay results reported in publication PMC9990120 (Journal of Proteome Research, 2023).
# B1: MISP (natural protein)
# chain: MDRVTRYPILGIPQAHRGTGLVLDGDTSYTYHLVCMGPEASGWGQDEPQTWPTDHRAQQGVQRQGVSYSVHAYTGQPSPRGLHSENREDEGWQVYRLGARDAHQGRPTWALRPEDGEDKEMKTYRLDAGDADPRRLCDLERERWAVIQGQAVRKSSTVATLQGTPDHGDPRTPGPPRSTPLEENVVDREQIDFLAARQQFLSLEQANKGAPHSSPARGTPAGTTPGASQAPKAFNKPHLANGHVVPIKPQVKGVVREENKVRAVPTWASVQVVDDPGSLASVESPGTPKETPIEREIRLAQEREADLREQRGLRQATDHQELVEIPTRPLLTKLSLITAPRRERGRPSLYVQRDIVQETQREEDHRREGLHVGRASTPDWVSEGPQPGLRRALSSDSILSPAPDARAADPAPEVRKVNRIPPDAYQPYLSPGTPQLEFSAFGAFGKPSSLSTAEAKAATSPKATMSPRHLSESSGKPLSTKQEASKPPRGCPQANRGVVRWEYFRLRPLRFRAPDEPQQAQVPHVWGWEVAGAPALRLQKSQSSDLLERERESVLRREQEVAEERRNALFPEVFSPTPDENSDQNSRSSSQASGITGSYSVSESPFFSPIHLHSNVAWTVEDPVDSAPPGQRKKEQWYAGINPSDGINSEVLEAIRVTRHKNAMAERWESRIYASEEDD
# Biological target: BirA*-FLAG tagged GSK-3β (UniProt P49841 1-420)
# Sequence (P49841 whole entry): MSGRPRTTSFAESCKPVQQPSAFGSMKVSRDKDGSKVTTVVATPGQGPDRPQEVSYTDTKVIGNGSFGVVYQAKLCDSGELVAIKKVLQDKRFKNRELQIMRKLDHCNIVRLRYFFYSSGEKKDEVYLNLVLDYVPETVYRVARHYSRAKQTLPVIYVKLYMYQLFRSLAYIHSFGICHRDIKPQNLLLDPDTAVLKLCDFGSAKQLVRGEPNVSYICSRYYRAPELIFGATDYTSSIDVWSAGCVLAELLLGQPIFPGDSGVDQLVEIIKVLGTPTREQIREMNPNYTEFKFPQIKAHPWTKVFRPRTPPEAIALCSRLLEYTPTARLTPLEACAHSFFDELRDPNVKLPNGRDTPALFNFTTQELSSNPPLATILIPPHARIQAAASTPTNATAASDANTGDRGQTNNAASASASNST
# Experiment: proximity labelling
binder,measurement,value
B1,fold signal intensity against the GSK-3α bait (normalised to bait level),~4 fold
